Measurements: US20220143214A1
Values joined by “and” are separate entries in the source; they are usually repeats but may differ in a detail not shown here. Identical values can stand only once.

Experiments:
[1] = target: LY6A (Ly6a, C57BL/6J mouse) (mouse (C57BL/6J)) (UniProt P05533); experiment: AAV library bound to Ly6a-transfected HEK293T cells, NGS
[2] = target: LY6C1 (Ly6c1, C57BL/6J mouse, splice variant 1) (mouse (C57BL/6J)) (UniProt P0CW02); experiment: AAV library bound to Ly6c1-transfected HEK293T cells, NGS
Sequence of UniProt P0CW02 (P0CW02 27-109 limits assumed, change not shown): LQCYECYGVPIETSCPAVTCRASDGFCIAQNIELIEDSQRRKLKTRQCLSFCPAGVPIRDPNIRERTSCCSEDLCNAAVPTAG

Sequence of UniProt P05533 (P05533 27-112 limits assumed): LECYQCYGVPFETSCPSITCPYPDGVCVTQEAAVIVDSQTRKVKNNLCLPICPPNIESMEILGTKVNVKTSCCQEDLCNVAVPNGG

Substance | fold enrichment (log2) [1] [log2] | fold enrichment (log2) [2]
AAV9 K449R 7-mer variant AADRPFL | 2.73 | -3.32 log2
AAV9 K449R 7-mer variant AGSFKDI | 3.96 | -2.87 log2
AAV9 K449R 7-mer variant AISAPFK | 2.56 | -0.06 log2
AAV9 K449R 7-mer variant AKAGYAS | -0.03 | 4.54 log2
AAV9 K449R 7-mer variant ALAKPFI | 1.91 | -0.19 log2
AAV9 K449R 7-mer variant ALHVPFK | 4.11 | 0.26 log2
AAV9 K449R 7-mer variant ASSKPFL | 3.9 | 1.19 log2
AAV9 K449R 7-mer variant DKAWGST | 0.19 | 3.56 log2
AAV9 K449R 7-mer variant DKQKPFL | 4.6 | 0.94 log2
AAV9 K449R 7-mer variant DKYNFSS | -0.13 | 3.43 log2
AAV9 K449R 7-mer variant DMERPFK | 4.51 | -3.91 log2
AAV9 K449R 7-mer variant DRIHGYS | -0.11 | 4.34 log2
AAV9 K449R 7-mer variant DRKGYSA | -0.39 | 2.77 log2
AAV9 K449R 7-mer variant DSQRPFI | 2.63 | -3.55 log2
AAV9 K449R 7-mer variant DTKWSSS | 0.53 | 4.11 log2
AAV9 K449R 7-mer variant DVKYGSS | -0.36 | 4.92 log2
AAV9 K449R 7-mer variant EDHRYSS | 0.17 | 3.4 log2
AAV9 K449R 7-mer variant EIRGYSS | 0.75 | 4.92 log2
AAV9 K449R 7-mer variant EKKQYSS | 0.89 | 4.45 log2
AAV9 K449R 7-mer variant ESRGFSS | -0.58 | 4.7 log2
AAV9 K449R 7-mer variant ESSKPFR | 3.15 | 1.28 log2
AAV9 K449R 7-mer variant ESTRPFK | 2.87 | 0.28 log2
AAV9 K449R 7-mer variant FLPGYSS | -2.29 | 2.54 log2

Substance | fold enrichment (log2) [1] [log2] | fold enrichment (log2) [2]
AAV9 K449R 7-mer variant FRIGGSS | 1.34 | 4.89 log2
AAV9 K449R 7-mer variant GDNRPFK | 2.65 | 0.57 log2
AAV9 K449R 7-mer variant GESRPFI | 3.32 | -2.08 log2
AAV9 K449R 7-mer variant GGRGLSS | 2 | 4.9 log2
AAV9 K449R 7-mer variant GKHFSST | 2.64 | 4.25 log2
AAV9 K449R 7-mer variant GKTGYST | -3.32 | 2.93 log2
AAV9 K449R 7-mer variant GKTHGYS | 1.65 | 3.87 log2
AAV9 K449R 7-mer variant GNENFSS | -1.43 | 3.45 log2
AAV9 K449R 7-mer variant GSERPFL | 3.78 | -4.2 log2
AAV9 K449R 7-mer variant GSYGYSS | -3.32 | 2.48 log2
AAV9 K449R 7-mer variant GVDRPFK | 3.84 | -1.13 log2
AAV9 K449R 7-mer variant HEHRYST | -4.06 | 3.06 log2
AAV9 K449R 7-mer variant HKTHYSS | 0.86 | 3.24 log2
AAV9 K449R 7-mer variant HNVFKNP | 2.09 | 0.33 log2
AAV9 K449R 7-mer variant HTQGYST | -3.32 | 2.26 log2
AAV9 K449R 7-mer variant IATGYSQ | -3.74 | 2.18 log2
AAV9 K449R 7-mer variant IDRGYSV | -1.04 | 5.3 log2
AAV9 K449R 7-mer variant IRQGYSS | -1.28 | 2.61 log2
AAV9 K449R 7-mer variant IRVGYST | -3.55 | 3.46 log2
AAV9 K449R 7-mer variant IVRGLSS | -1.14 | 3.24 log2
AAV9 K449R 7-mer variant KDKFKDI | 3.38 | -2.08 log2
AAV9 K449R 7-mer variant KQYQGST | 1.54 | 4.88 log2
AAV9 K449R 7-mer variant KTQFKDV | 2.09 | -3.55 log2

Substance | fold enrichment (log2) [1] [log2] | fold enrichment (log2) [2]
AAV9 K449R 7-mer variant LAHTYSS | 0.04 | 3.97 log2
AAV9 K449R 7-mer variant LKKGYST | 1.72 | 2.96 log2
AAV9 K449R 7-mer variant LKTGMSS | -0.66 | 2.74 log2
AAV9 K449R 7-mer variant LKYGTST | 1.24 | 4.88 log2
AAV9 K449R 7-mer variant LLRGASS | -0.33 | 2.96 log2
AAV9 K449R 7-mer variant LNRGSST | 1.72 | 4.15 log2
AAV9 K449R 7-mer variant LRGGYST | -3.32 | 2.88 log2
AAV9 K449R 7-mer variant LRMGASS | 0.91 | 4.17 log2
AAV9 K449R 7-mer variant LRTAYSS | 1.13 | 5.12 log2
AAV9 K449R 7-mer variant LSKGLSS | -3.55 | 3.55 log2
AAV9 K449R 7-mer variant LSMGYST | -3.91 | 2.97 log2
AAV9 K449R 7-mer variant LTKWEST | 0.82 | 3.91 log2
AAV9 K449R 7-mer variant LWAKGST | 1.42 | 3.9 log2
AAV9 K449R 7-mer variant LYAGRSS | 1.03 | 4.13 log2
AAV9 K449R 7-mer variant MERYGSS | -2.28 | 3.83 log2
AAV9 K449R 7-mer variant MMAKPFL | 4.53 | -0.49 log2
AAV9 K449R 7-mer variant MNIGYSA | -1.48 | 2.4 log2
AAV9 K449R 7-mer variant MRTFGSA | 1 | 3.97 log2
AAV9 K449R 7-mer variant MRTLMSS | -0.52 | 3.85 log2
AAV9 K449R 7-mer variant MVRNYST | -0.94 | 3.25 log2
AAV9 K449R 7-mer variant NDQRPFL | 3.27 | -4.33 log2
AAV9 K449R 7-mer variant NERRPFL | 4.31 | 0.77 log2
AAV9 K449R 7-mer variant NGYKGST | 1.24 | 4.98 log2

Substance | fold enrichment (log2) [1] [log2] | fold enrichment (log2) [2]
AAV9 K449R 7-mer variant NIIRPFA | 3.23 | 0.4 log2
AAV9 K449R 7-mer variant NKVGYST | -3.74 | 3.13 log2
AAV9 K449R 7-mer variant NLKRPFA | 2.8 | 0.85 log2
AAV9 K449R 7-mer variant NMERPFR | 2.96 | 0.95 log2
AAV9 K449R 7-mer variant NRGGYAS | -0.18 | 4.53 log2
AAV9 K449R 7-mer variant NSPGWSS | -0.93 | 3.08 log2
AAV9 K449R 7-mer variant NYTGYSS | – | 4.83 log2 and 4.44 log2
AAV9 K449R 7-mer variant PPSFKNV | 3.69 | -4.33 log2
AAV9 K449R 7-mer variant PYQGASS | -0.53 | 5.24 log2
AAV9 K449R 7-mer variant QDKGYSS | -3.55 | 2.61 log2
AAV9 K449R 7-mer variant QHFGQSS | -0.37 | 4.68 log2
AAV9 K449R 7-mer variant QNARPFV | 1.52 | 1.42 log2
AAV9 K449R 7-mer variant QSAGYST | -1.58 | 2.55 log2
AAV9 K449R 7-mer variant QTLFKNI | 3.07 | -0.72 log2
AAV9 K449R 7-mer variant RATGYSS | 2.49 | 4.75 log2
AAV9 K449R 7-mer variant RIDNPFK | 4.48 | -1.89 log2
AAV9 K449R 7-mer variant RLSFKDV | 2.39 | -1.62 log2
AAV9 K449R 7-mer variant RSDFKDI | 3.45 | -2.44 log2
AAV9 K449R 7-mer variant SEGRPFI | 1.85 | -3.55 log2
AAV9 K449R 7-mer variant SHTKPFA | 4.79 | 0.97 log2
AAV9 K449R 7-mer variant SIARPFV | 3.79 | -3.55 log2
